Measurements reported in patent US20220306695A1, “COMPSTATIN ANALOGUES AND THEIR MEDICAL USES” (priority 2019, published 2022).
Positions of bridges follow the written chain, without caps; N, C: chain ends.

B1: Compound 34 (peptide)
peptide: Ac-EICIWQDWGEHRCTEGE-NH2
modifications: disulfide 3-13
SMILES: CC[C@H](C)[C@@H]1NC(=O)[C@@H](NC(=O)[C@@H](NC(=O)[C@H](CCC(=O)O)NC(C)=O)[C@@H](C)CC)CSSC[C@@H](C(=O)N[C@H](C(=O)N[C@@H](CCC(=O)O)C(=O)NCC(=O)N[C@@H](CCC(=O)O)C(N)=O)[C@@H](C)O)NC(=O)[C@H](CCCNC(=N)N)NC(=O)[C@H](Cc2c[nH]cn2)NC(=O)[C@H](CCC(=O)O)NC(=O)CNC(=O)[C@H](Cc2c[nH]c3ccccc23)NC(=O)[C@H](CC(=O)O)NC(=O)[C@H](CCC(N)=O)NC(=O)[C@H](Cc2c[nH]c3ccccc23)NC1=O
B2: Compound 31 (peptide)
peptide: Ac-ESEICIWQDWGEHRCT-NH2
modifications: disulfide 5-15
SMILES: CC[C@H](C)[C@@H]1NC(=O)[C@@H](NC(=O)[C@@H](NC(=O)[C@H](CCC(=O)O)NC(=O)[C@H](CO)NC(=O)[C@H](CCC(=O)O)NC(C)=O)[C@@H](C)CC)CSSC[C@@H](C(=O)N[C@H](C(N)=O)[C@@H](C)O)NC(=O)[C@H](CCCNC(=N)N)NC(=O)[C@H](Cc2c[nH]cn2)NC(=O)[C@H](CCC(=O)O)NC(=O)CNC(=O)[C@H](Cc2c[nH]c3ccccc23)NC(=O)[C@H](CC(=O)O)NC(=O)[C@H](CCC(N)=O)NC(=O)[C@H](Cc2c[nH]c3ccccc23)NC1=O
B3: Compound 26 (peptide)
peptide: Ac-ICIWQDWGEHRCTE-NH2
modifications: disulfide 2-12
SMILES: CC[C@H](C)[C@H](NC(C)=O)C(=O)N[C@H]1CSSC[C@@H](C(=O)N[C@H](C(=O)N[C@@H](CCC(=O)O)C(N)=O)[C@@H](C)O)NC(=O)[C@H](CCCNC(=N)N)NC(=O)[C@H](Cc2c[nH]cn2)NC(=O)[C@H](CCC(=O)O)NC(=O)CNC(=O)[C@H](Cc2c[nH]c3ccccc23)NC(=O)[C@H](CC(=O)O)NC(=O)[C@H](CCC(N)=O)NC(=O)[C@H](Cc2c[nH]c3ccccc23)NC(=O)[C@H]([C@@H](C)CC)NC1=O
B4: Compound 27 (peptide)
peptide: Ac-ICIWQDWGEHRCEGE-NH2
modifications: disulfide 2-12
SMILES: CC[C@H](C)[C@H](NC(C)=O)C(=O)N[C@H]1CSSC[C@@H](C(=O)N[C@@H](CCC(=O)O)C(=O)NCC(=O)N[C@@H](CCC(=O)O)C(N)=O)NC(=O)[C@H](CCCNC(=N)N)NC(=O)[C@H](Cc2c[nH]cn2)NC(=O)[C@H](CCC(=O)O)NC(=O)CNC(=O)[C@H](Cc2c[nH]c3ccccc23)NC(=O)[C@H](CC(=O)O)NC(=O)[C@H](CCC(N)=O)NC(=O)[C@H](Cc2c[nH]c3ccccc23)NC(=O)[C@H]([C@@H](C)CC)NC1=O
B5: Compound 18 (peptide)
peptide: Ac-ICIWQDWGRHRCT-NH2
modifications: disulfide 2-12
SMILES: CC[C@H](C)[C@H](NC(C)=O)C(=O)N[C@H]1CSSC[C@@H](C(=O)N[C@H](C(N)=O)[C@@H](C)O)NC(=O)[C@H](CCCNC(=N)N)NC(=O)[C@H](Cc2c[nH]cn2)NC(=O)[C@H](CCCNC(=N)N)NC(=O)CNC(=O)[C@H](Cc2c[nH]c3ccccc23)NC(=O)[C@H](CC(=O)O)NC(=O)[C@H](CCC(N)=O)NC(=O)[C@H](Cc2c[nH]c3ccccc23)NC(=O)[C@H]([C@@H](C)CC)NC1=O
B6: Compound 25 (peptide)
peptide: Ac-ICIWQDWGEHRCTEA-NH2
modifications: disulfide 2-12
SMILES: CC[C@H](C)[C@H](NC(C)=O)C(=O)N[C@H]1CSSC[C@@H](C(=O)N[C@H](C(=O)N[C@@H](CCC(=O)O)C(=O)N[C@@H](C)C(N)=O)[C@@H](C)O)NC(=O)[C@H](CCCNC(=N)N)NC(=O)[C@H](Cc2c[nH]cn2)NC(=O)[C@H](CCC(=O)O)NC(=O)CNC(=O)[C@H](Cc2c[nH]c3ccccc23)NC(=O)[C@H](CC(=O)O)NC(=O)[C@H](CCC(N)=O)NC(=O)[C@H](Cc2c[nH]c3ccccc23)NC(=O)[C@H]([C@@H](C)CC)NC1=O
B7: Compound 32 (peptide)
peptide: Ac-SEICIWQDWGEHRCTEA-NH2
modifications: disulfide 4-14
SMILES: CC[C@H](C)[C@@H]1NC(=O)[C@@H](NC(=O)[C@@H](NC(=O)[C@H](CCC(=O)O)NC(=O)[C@H](CO)NC(C)=O)[C@@H](C)CC)CSSC[C@@H](C(=O)N[C@H](C(=O)N[C@@H](CCC(=O)O)C(=O)N[C@@H](C)C(N)=O)[C@@H](C)O)NC(=O)[C@H](CCCNC(=N)N)NC(=O)[C@H](Cc2c[nH]cn2)NC(=O)[C@H](CCC(=O)O)NC(=O)CNC(=O)[C@H](Cc2c[nH]c3ccccc23)NC(=O)[C@H](CC(=O)O)NC(=O)[C@H](CCC(N)=O)NC(=O)[C@H](Cc2c[nH]c3ccccc23)NC1=O
B8: Compound 33 (peptide)
peptide: Ac-EICIWQDWGEHRCTE-NH2
modifications: disulfide 3-13
SMILES: CC[C@H](C)[C@@H]1NC(=O)[C@@H](NC(=O)[C@@H](NC(=O)[C@H](CCC(=O)O)NC(C)=O)[C@@H](C)CC)CSSC[C@@H](C(=O)N[C@H](C(=O)N[C@@H](CCC(=O)O)C(N)=O)[C@@H](C)O)NC(=O)[C@H](CCCNC(=N)N)NC(=O)[C@H](Cc2c[nH]cn2)NC(=O)[C@H](CCC(=O)O)NC(=O)CNC(=O)[C@H](Cc2c[nH]c3ccccc23)NC(=O)[C@H](CC(=O)O)NC(=O)[C@H](CCC(N)=O)NC(=O)[C@H](Cc2c[nH]c3ccccc23)NC1=O
B9: Compound 30 (peptide)
peptide: Ac-EGEICIWQDWGEHRCT-NH2
modifications: disulfide 5-15
SMILES: CC[C@H](C)[C@@H]1NC(=O)[C@@H](NC(=O)[C@@H](NC(=O)[C@H](CCC(=O)O)NC(=O)CNC(=O)[C@H](CCC(=O)O)NC(C)=O)[C@@H](C)CC)CSSC[C@@H](C(=O)N[C@H](C(N)=O)[C@@H](C)O)NC(=O)[C@H](CCCNC(=N)N)NC(=O)[C@H](Cc2c[nH]cn2)NC(=O)[C@H](CCC(=O)O)NC(=O)CNC(=O)[C@H](Cc2c[nH]c3ccccc23)NC(=O)[C@H](CC(=O)O)NC(=O)[C@H](CCC(N)=O)NC(=O)[C@H](Cc2c[nH]c3ccccc23)NC1=O
B10: Compound 17 (peptide)
peptide: Ac-ICIWQDWGDHRCT-NH2
modifications: disulfide 2-12
SMILES: CC[C@H](C)[C@H](NC(C)=O)C(=O)N[C@H]1CSSC[C@@H](C(=O)N[C@H](C(N)=O)[C@@H](C)O)NC(=O)[C@H](CCCNC(=N)N)NC(=O)[C@H](Cc2c[nH]cn2)NC(=O)[C@H](CC(=O)O)NC(=O)CNC(=O)[C@H](Cc2c[nH]c3ccccc23)NC(=O)[C@H](CC(=O)O)NC(=O)[C@H](CCC(N)=O)NC(=O)[C@H](Cc2c[nH]c3ccccc23)NC(=O)[C@H]([C@@H](C)CC)NC1=O
B11: Compound 22 (peptide)
peptide: Ac-ICIWQDWGEHRCE-NH2
modifications: disulfide 2-12
SMILES: CC[C@H](C)[C@H](NC(C)=O)C(=O)N[C@H]1CSSC[C@@H](C(=O)N[C@@H](CCC(=O)O)C(N)=O)NC(=O)[C@H](CCCNC(=N)N)NC(=O)[C@H](Cc2c[nH]cn2)NC(=O)[C@H](CCC(=O)O)NC(=O)CNC(=O)[C@H](Cc2c[nH]c3ccccc23)NC(=O)[C@H](CC(=O)O)NC(=O)[C@H](CCC(N)=O)NC(=O)[C@H](Cc2c[nH]c3ccccc23)NC(=O)[C@H]([C@@H](C)CC)NC1=O

biological target: Human C3 (human, UniProt P01024 23-1663); assay: cell-based or functional assay
Sequence (P01024 23-1663 limits assumed): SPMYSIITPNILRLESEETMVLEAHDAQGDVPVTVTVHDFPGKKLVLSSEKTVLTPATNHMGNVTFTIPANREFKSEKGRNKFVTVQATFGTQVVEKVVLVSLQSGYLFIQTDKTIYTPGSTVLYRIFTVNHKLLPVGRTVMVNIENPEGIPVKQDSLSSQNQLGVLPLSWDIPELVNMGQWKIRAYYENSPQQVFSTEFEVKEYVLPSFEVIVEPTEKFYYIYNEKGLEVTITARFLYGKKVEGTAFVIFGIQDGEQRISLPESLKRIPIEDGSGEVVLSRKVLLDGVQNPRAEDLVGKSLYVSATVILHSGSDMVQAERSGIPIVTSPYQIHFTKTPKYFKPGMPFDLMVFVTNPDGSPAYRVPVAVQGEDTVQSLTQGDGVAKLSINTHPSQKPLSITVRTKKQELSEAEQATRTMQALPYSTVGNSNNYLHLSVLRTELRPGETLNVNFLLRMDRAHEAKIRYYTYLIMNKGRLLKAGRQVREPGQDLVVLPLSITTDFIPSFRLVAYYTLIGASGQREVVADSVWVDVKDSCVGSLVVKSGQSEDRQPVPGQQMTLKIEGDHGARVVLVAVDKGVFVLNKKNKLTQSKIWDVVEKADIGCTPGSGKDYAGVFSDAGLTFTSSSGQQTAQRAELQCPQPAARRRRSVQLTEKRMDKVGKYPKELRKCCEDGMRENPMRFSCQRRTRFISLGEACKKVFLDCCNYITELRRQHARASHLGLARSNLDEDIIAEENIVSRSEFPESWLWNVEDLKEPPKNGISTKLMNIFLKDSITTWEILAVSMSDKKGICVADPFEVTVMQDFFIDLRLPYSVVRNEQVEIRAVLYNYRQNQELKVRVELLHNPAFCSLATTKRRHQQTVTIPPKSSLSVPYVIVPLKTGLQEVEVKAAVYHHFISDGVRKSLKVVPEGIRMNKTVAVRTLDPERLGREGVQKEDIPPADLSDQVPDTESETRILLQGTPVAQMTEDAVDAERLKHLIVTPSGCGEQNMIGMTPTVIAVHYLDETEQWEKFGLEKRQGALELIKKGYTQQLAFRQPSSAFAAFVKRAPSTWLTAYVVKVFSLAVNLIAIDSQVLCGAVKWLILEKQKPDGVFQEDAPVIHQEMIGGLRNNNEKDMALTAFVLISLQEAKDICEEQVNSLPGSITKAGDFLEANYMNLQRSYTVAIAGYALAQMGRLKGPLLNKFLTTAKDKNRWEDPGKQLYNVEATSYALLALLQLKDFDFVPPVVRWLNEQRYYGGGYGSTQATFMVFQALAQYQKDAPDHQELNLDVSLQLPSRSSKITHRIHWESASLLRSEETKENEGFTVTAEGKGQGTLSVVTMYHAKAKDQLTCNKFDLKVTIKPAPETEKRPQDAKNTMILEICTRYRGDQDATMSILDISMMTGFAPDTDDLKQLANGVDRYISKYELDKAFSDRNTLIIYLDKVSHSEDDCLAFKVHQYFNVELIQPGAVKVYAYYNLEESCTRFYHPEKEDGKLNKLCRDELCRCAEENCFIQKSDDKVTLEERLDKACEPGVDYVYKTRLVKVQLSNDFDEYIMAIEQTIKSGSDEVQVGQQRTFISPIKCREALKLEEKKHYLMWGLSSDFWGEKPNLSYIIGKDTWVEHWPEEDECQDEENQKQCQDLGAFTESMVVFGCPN

| Binder | IC50[nM], inhibition of hemolysis [nM] |
| --- | --- |
| B1 | < 250 |
| B2 | < 100 |
| B3 | < 100 |
| B4 | < 100 |
| B5 | < 100 |
| B6 | < 100 |
| B7 | < 100 |
| B8 | < 100 |
| B9 | < 100 |
| B10 | < 100 |
| B11 | < 100 |
